Source: publication PMC10991328, “A distal enhancer guides the negative selection of toxic glycoalkaloids during tomato domestication”

Target: MYC2-GST (Solanum lycopersicum (MicroTom), UniProt A0A3Q7HRZ6 1-689)
Test: EMSA; strong binding; 20-40 ng protein; EMSA: 10 mM Tris-HCl pH 7.2, 50 mM KCl, 1 mM DTT, 2.5% glycerol, 0.05% NP-40, 50 ng/uL poly(dI-dC), room temperature, 20 min; pull-down: 10 mM HEPES pH 7.9, 100 mM KCl, 5 mM MgCl2, 10% glycerol, 1 mM DTT, 0.5% NP-40, 4 C overnight
Conditions: protein: recombinant; tags: GST (pGEX-4T-1); chain copies: 2; label: 3'-biotin; blunt

Sequence of MYC2-GST (A0A3Q7HRZ6 whole entry): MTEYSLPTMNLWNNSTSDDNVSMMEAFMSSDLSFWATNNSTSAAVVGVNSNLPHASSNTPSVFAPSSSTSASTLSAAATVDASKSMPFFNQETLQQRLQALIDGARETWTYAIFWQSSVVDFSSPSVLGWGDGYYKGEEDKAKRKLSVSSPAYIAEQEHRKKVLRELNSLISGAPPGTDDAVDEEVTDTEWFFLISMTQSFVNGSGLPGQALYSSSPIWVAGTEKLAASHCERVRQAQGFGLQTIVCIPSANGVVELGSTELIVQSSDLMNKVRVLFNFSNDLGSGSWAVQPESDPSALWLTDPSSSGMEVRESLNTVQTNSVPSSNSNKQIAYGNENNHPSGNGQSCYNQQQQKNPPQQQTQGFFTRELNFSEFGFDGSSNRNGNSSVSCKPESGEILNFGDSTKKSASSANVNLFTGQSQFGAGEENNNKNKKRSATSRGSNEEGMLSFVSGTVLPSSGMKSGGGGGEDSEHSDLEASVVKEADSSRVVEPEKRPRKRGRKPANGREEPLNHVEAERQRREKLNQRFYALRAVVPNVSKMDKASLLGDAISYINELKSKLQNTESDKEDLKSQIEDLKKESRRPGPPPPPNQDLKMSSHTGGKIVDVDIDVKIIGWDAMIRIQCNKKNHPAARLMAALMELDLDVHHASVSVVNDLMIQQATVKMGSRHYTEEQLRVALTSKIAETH

B1: GE1-1 probe (dsDNA)
DNA 1: ATGTATGTGTCTAATCAAACATCGGTGGCATAATTTTTTTTAGCATCAAA
DNA 2: TTTGATGCTAAAAAAAATTATGCCACCGATGTTTGATTAGACACATACAT
  binding result: binds
